From patent US20230241113A1 (IMMATICS BIOTECHNOLOGIES, published 2023)

target: T1, HLA-A*02:01 (human); assay: UV-ligand exchange + anti-β2m ELISA; exchange yield grade: ≥10% +, ≥20% ++, ≥50 +++, ≥75% ++++
T1 construct: captured on streptavidin plates, detected with anti-β2m; also called peptide-receptive MHC molecules; MHC class I
Protocol: The individual peptide-MHC complexes were produced by UV-ligand exchange, where a UV-sensitive peptide is cleaved upon UV-irradiation and exchanged with the peptide of interest as analyzed. Only peptide candidates that can effectively bind and stabilize the peptide-receptive MHC molecules prevent dissociation of the MHC complexes. To determine the yield of the exchange reaction, an ELISA was performed based on the detection of the light chain (β2m) of stabilized MHC complexes. The assay was performed as generally described in Rodenko et al. (Rodenko et al., 2006).
96 well MAXISorp plates (NUNC) were coated over night with 2 μg/ml streptavidin in PBS at room temperature, washed 4× and blocked for 1 h at 37° C. in 2% BSA containing blocking buffer. Refolded HLA-A*02:01/MLA-001 monomers served as standards, covering the range of 15-500 ng/ml. Peptide-MHC monomers of the UV-exchange reaction were diluted 100 fold in blocking buffer. Samples were incubated for 1 h at 37° C., washed four times, incubated with 2 μg/ml HRP conjugated anti-β2m for 1 h at 37° C., washed again and detected with TMB solution that is stopped with […]. Absorption was measured at 450 nm. Candidate peptides that show a high exchange yield (preferably higher than 50%, most preferred higher than 75%) are generally preferred for a generation and production of antibodies or fragments thereof, and/or T cell receptors or fragments thereof, as they show sufficient avidity to the MHC molecules and prevent dissociation of the MHC complexes.

peptide exchange yield [%]	Binder
≥ 75	GLLTQVHIL (also called GLLTQVHIL) [altORF-049]
20 to 50	ISVLNLSAI (also called ISVLNLSAI) [altORF-023]
20 to 50	NLVMPLLHI (also called NLVMPLLHI) [altORF-013]
≥ 75	YVLMTSLLL (also called YVLMTSLLL) [altORF-055]
50 to 75	MVQQEKLFV (also called MVQQEKLFV) [altORF-053]
≥ 75	TISISLSSV (also called TISISLSSV) [altORF-051]
≥ 75	AMVEIIPKV (also called AMVEIIPKV) [altORF-044]
20 to 50	AIWSTILIA (also called AIWSTILIA) [altORF-041]
20 to 50	MIISHRALEL (also called MIISHRALEL) [altORF-056]
≥ 75	GLSPDQVFL (also called GLSPDQVFL) [altORF-052]
≥ 75	LLIEVSEEL (also called LLIEVSEEL) [altORF-012]
50 to 75	VLSVSAVLGA (also called VLSVSAVLGA) [altORF-030]
20 to 50	GLEVLDALL (also called GLEVLDALL) [altORF-021]
≥ 75	ALLPGVPGL (also called ALLPGVPGL) [altORF-045]
≥ 75	HLDSMNVSI (also called HLDSMNVSI) [altORF-010]
≥ 75	SLYDVPVGA (also called SLYDVPVGA) [altORF-020]
50 to 75	FVFISPSFL (also called FVFISPSFL) [altORF-019]
≥ 75	GLASYLDRV (also called GLASYLDRV) [altORF-048]
≥ 75	MLLPWLPKL (also called MLLPWLPKL) [altORF-017]
≥ 75	YLGDSHVLL (also called YLGDSHVLL) [altORF-002]
≥ 75	VVLPIVITL (also called VVLPIVITL) [altORF-029]
20 to 50	VLISLPGKV (also called VLISLPGKV) [altORF-018]
20 to 50	LLRLTLLPL (also called LLRLTLLPL) [altORF-028]
≥ 75	SLSAWLPSL (also called SLSAWLPSL) [altORF-036]
≥ 75	KLWTSLVNL (also called KLWTSLVNL) [altORF-024]
50 to 75	LMASEGIWESSL (also called LMASEGIWESSL) [altORF-039]
≥ 75	FASERPPSV (also called FASERPPSV) [altORF-031]

peptide exchange yield [%]	Binder
≥ 75	LLWEFPSMA (also called LLWEFPSMA) [altORF-027]
≥ 75	MLAEIHPKA (also called MLAEIHPKA) [altORF-046]
≥ 75	SLLDKLSGI (also called SLLDKLSGI) [altORF-008]
≥ 75	FLDEGSLLRL (also called FLDEGSLLRL) [altORF-011]
≥ 75	VLLNSNYPV (also called VLLNSNYPV) [altORF-033]
≥ 75	KMMTFFQGL (also called KMMTFFQGL) [altORF-016]
≥ 75	FLLVPSPIWQL (also called FLLVPSPIWQL) [altORF-001]
≥ 75	WLIPRQLAAA (also called WLIPRQLAAA) [altORF-042]
20 to 50	LAFVSHVLI (also called LAFVSHVLI) [altORF-050]
20 to 50	IAAGVPNTDA (also called IAAGVPNTDA) [altORF-025]
≥ 75	ALLDAEQSPVAL (also called ALLDAEQSPVAL) [altORF-014]
≥ 75	LLNVEPAGA (also called LLNVEPAGA) [altORF-032]
≥ 75	FQVTRTTGV (also called FQVTRTTGV) [altORF-034]
50 to 75	ALLPHAPEAV (also called ALLPHAPEAV) [altORF-009]
≥ 75	ALYHQSPLL (also called ALYHQSPLL) [altORF-043]
≥ 75	FTLPFLVNL (also called FTLPFLVNL) [altORF-038]
≥ 75	WITPVIPAL (also called WITPVIPAL) [altORF-040]
≥ 75	LVWEVVESV (also called LVWEVVESV) [altORF-003]
≥ 75	FLWDPRDVVL (also called FLWDPRDVVL) [altORF-047]
50 to 75	SQLEKPETA (also called SQLEKPETA) [altORF-026]
≥ 75	ALLDVLVKL (also called ALLDVLVKL) [COLPDG-001]
50 to 75	IITNLIVNI (also called IITNLIVNI) [altORF-054]
≥ 75	TLTSLNILL (also called TLTSLNILL) [altORF-022]
≥ 75	KLLDFSTRI (also called KLLDFSTRI) [NUDCD2-001]
≥ 75	VLWDLRPSSLI (also called VLWDLRPSSLI) [altORF-015]
≥ 75	KILDEFYNV (also called KILDEFYNV) [altORF-035]
≥ 75	YIYEDEVRL (also called YIYEDEVRL) [altORF-037]
